The results in this text go back to US20250282887A1 (Amgen, published 2025).

One test deals with T1, human MAGEB5 (human, UniProt Q9BZ81 1-275).
T1 construct: whole, on cells; Transfected into CHO cells with Myc/DDK tags; also called CHO-MAGEB5+ cells
T1 sequence (looked up): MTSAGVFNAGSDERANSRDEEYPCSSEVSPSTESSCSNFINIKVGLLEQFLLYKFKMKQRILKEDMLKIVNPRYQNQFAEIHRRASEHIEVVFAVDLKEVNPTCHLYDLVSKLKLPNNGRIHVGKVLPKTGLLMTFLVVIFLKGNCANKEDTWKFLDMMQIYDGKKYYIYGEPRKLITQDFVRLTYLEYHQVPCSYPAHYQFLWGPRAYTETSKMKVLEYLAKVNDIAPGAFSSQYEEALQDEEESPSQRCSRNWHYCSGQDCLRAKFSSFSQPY
In words: IHC, FFPE CHO cells transfected with human MAGEB5. From the text:
Negative control cells included parental Chinese hamster ovary (CHO) cells, CHO cells stably transfected with mCherry Vector Control (minus Myc/DDK tags), CHO cells stably transfected with mCherry-human DCAF4L2 (plus Myc/DDK tags). The cross-reactivity control cells included CHO cells transfected with mCherry Vector Control (plus Myc/DDK tags) with one of the human MAGE-B or MAGE-A family members (MAGEA1, MAGEA2, MAGEA3, MAGEA4, MAGEA5, MAGEA6, MAGEA8, MAGEA9, MAGEA11, MAGEA12, MAGEB1, MAGEB3, MAGEB4, MAGEB5, MAGEB6, MAGEB10, MAGEB16, MAGEB17, MAGEB18). Positive control cell lines included CHO cells transfected with mCherry Vector (plus Myc/DDK tags) with human MAGE-B2 or CHO cells transfected with mCherry Vector (open reading frame (ORF); minus Myc/DDK tags) with human MAGEB2, and thirteen human cancer cell lines with known endogenous RNA expression level of MAGEB2 (U266B1, T98G, KMM-1, U20S, CFPAC-1, SCaBER, UACC-257, CFPAC-1, VMRC-LCD, NCI-H1703, UM-UC-3, NCI-H1395, NCIH82).
(§1) FFPE samples were sectioned at 4 μm and mounted on positive charged glass slides. After mounting, paraffin sections were air-dried at room temperature. FFPE TMA samples were received as freshly sectioned and mounted on glass slides. The fully automated IHC assay was performed on a Discovery Ultra Stainer (Ventana Medical Systems, Tucson, AZ) using Ventana Anti-Rabbit HQ (cat #760-4815), Ventana Anti-HQ HRP (cat #760-4820), and Ventana Antibody Diluent with Casein (cat #760-219) (Ventana Medical Systems, Tucson, AZ). The slides were baked on the Discovery Ultra Stainer at 60° C. for 8 minutes, de-paraffinized with Ventana Discovery wash (cat #950-510) for 3 cycles (8 minutes each) at 69° C., and underwent cell conditioning (target retrieval) at 95° C. for 16 minutes (for cell arrays) or 32 minutes (tissues or TMAs) in CC1 buffer (cat #950-500). Following this, slides were incubated with Background Sniper (cat #BS966M, Biocare Medical, Pacheco, CA) in a Ventana Option Prep kit (cat #771-751) for 28 minutes, incubated with CM inhibitor (a part of the Ventana DAB kit cat #760-159) for 12 minutes, and incubated for 1 h at RT with MAGE-B2 antibody diluted with Ventana diluent with Casein in a Ventana Prep kit (cat #770-001) (working concentration at 0.1 μg/ml for cell pellet, or 1-5 ug/ml for tissues) or with a matched concentration of isotype control Rabbit IgG1 antibody.

In the next test the target is T2, human MAGEB17 (human, UniProt A8MXT2 1-336).
T2 construct: whole, on cells; FFPE cell pellets; also called MAGE-17
T2 sequence (looked up): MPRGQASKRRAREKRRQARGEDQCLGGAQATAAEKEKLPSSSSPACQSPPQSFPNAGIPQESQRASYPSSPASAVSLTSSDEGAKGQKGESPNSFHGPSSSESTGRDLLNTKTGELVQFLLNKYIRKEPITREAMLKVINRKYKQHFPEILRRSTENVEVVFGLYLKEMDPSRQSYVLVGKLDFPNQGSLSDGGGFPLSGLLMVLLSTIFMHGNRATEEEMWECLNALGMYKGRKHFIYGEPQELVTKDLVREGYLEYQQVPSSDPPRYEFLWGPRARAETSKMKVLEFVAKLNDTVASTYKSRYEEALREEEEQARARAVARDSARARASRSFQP
In words: IHC, FFPE CHO cells transfected with human MAGEB17. The method, then:
as §1, with “antibody. Following this, slides were incubated with the Ventana Anti-Rabbit HQ (cat #760-4815) for 28 minutes at RT, Ventana Anti-HQ HRP (cat #760-4820) for 28 minutes at RT, and signals detected with Ventana DAB chromogen kit (cat #760-159) for 5 minutes at RT. Slides were counterstained with Ventana Hematoxylin II (cat #5266726001) for 8 minutes and Ventana Bluing reagent (cat #526676900) for 4 minutes. Slides were coverslipped and digitized using an Aperio AT2 scanner (Leica Biosystems Inc, Buffalo Grove, IL).” for “antibody.”

B1: 1C3 (antibody, V domains shown)
VH: QSLEESGGGLVQPEGSLTLTCTAFGVTLTNYYICWVRQAPGKGLEWVGCIDNANGRTYYASWAKGRFTISKTSSTTGTLQMTSLTAADTATYFCARSLATPLWGPGTLVTVSS
VL: DIVMTQTPSSVEAAVGGTVTIKCQASQNISSYLAWYQQKPGQPPKLLIYRASTLASGVPSRFKGSGSGTQFTLTISDLECADAATYYCQSYDDSRSSNFFYAFGGGTEVVVKG
notes: also called MAGE-B2 (IC3); anti-MAGEB2 antibody 1C3
With B1, the binding result with human MAGEB5 and with human MAGEB17 was “no binding (tested: 0.1 µg/ml)” in each case.

B2: 4G17 (antibody, IgG1, V domains shown)
VH: QSLEESGGGLVQPEGSLTLTCTASGVTLSNYYICWVRQAPGKGLEWIGCIDNVNGRTYYASWAKGRFTISKTSSTTGTLQMTSLTAADTATYFCARSLATPLWGPGTLVTVSS
VL: DIVMTQTPASVEAAVGGTVTIKCQASQNIDSYLAWYQQKPGQPPKLLIYRASTLASGVPSRFKGSGSGTEFTLTISDLECADAATYYCQSYDDSRSSSFFYGFGGGTEVVVK
notes: Rabbit monoclonal IgG1; Tested as supernatant and as small batch purified antibody; also called MAGE-B2 (4G17); anti-MAGEB2 antibody 4G17
As to B2, the binding result with human MAGEB5 and with human MAGEB17 was “no binding (tested: 0.1 µg/ml)” throughout.

B3: 1J15 (antibody, IgG1, V domains shown)
VH: QSLEESGGGLVQPEGSLTLTCTAFGFTLNNYYICWVRQAPGKGLEWIACIDNANGRTYYASWAKGRFTISKTSSTTVTLQMTSLTAADTATYFCARSLSTPLWGPGTLVTVSS
VL: DIVMTQTPASVEAAVGGTVTIKCQASQSISSYLSWYQQKPGQPPKLLIYRASTLASGVPSRFRGSGSGTQFTLTISDLECADAATYYCQSYDDSSDNNFFYGFGGGTEVVVR
notes: Rabbit monoclonal IgG1; Tested as supernatant and as small batch purified antibody; also called MAGE-B2 (IJ15); anti-MAGEB2 antibody 1J15
For the molecule B3, the binding result with human MAGEB5 and in the test with human MAGEB17 was “no binding (tested: 0.1 µg/ml)” each time.

B4: 1I14 (antibody, V domains shown)
VH: QSVEESGGRLVTPGTPLTLTCTISGFSLSSYAMSWVRQAPGKGLEWIGSIGGGGSAVYASWAKGRFTISKTSTTVDLRITSPTTEDTAMYFCGRGFYSIDLWGPGTLVTVSS
VL: DVVMTQTPASVEATVGGTVTIKCQSSQSVYDNNALAWYQQNAGQRPRLLIYGASTLASGVPSRFSASGSGTEFTLTISDLECADAATYYCQCTYYVSSYQNDFGGGTEVVVKG
notes: also called MAGE-B2 (1i14)
For the molecule B4, the binding result with human MAGEB5 and in the test with human MAGEB17 was “no binding (tested: 0.1 µg/ml)” each time.
